Measured values from PMC10042835, “Phytochrome B photobodies are comprised of phytochrome B and its primary and secondary interacting proteins” (Nature Communications, 2023).

Target: T1, SBP-fused phyB (SBP-phyB), recombinant full-length phyB (Arabidopsis thaliana, UniProt P14713 1-1172, made in phycocyanobilin-producing LMG194 (chromophore); Pfr or Pr form set by a red or far-red light pulse)
T1 construct: phytochrome B (phyB), Arabidopsis thaliana, full length; pBAD-derived vector; the Pfr and Pr forms are told apart by the assay; also called phytochrome B; Pfr form; source: phycocyanobilin-producing E. coli LMG194, purified (Ni-NTA, Streptavidin sepharose)
T1 sequence (looked up): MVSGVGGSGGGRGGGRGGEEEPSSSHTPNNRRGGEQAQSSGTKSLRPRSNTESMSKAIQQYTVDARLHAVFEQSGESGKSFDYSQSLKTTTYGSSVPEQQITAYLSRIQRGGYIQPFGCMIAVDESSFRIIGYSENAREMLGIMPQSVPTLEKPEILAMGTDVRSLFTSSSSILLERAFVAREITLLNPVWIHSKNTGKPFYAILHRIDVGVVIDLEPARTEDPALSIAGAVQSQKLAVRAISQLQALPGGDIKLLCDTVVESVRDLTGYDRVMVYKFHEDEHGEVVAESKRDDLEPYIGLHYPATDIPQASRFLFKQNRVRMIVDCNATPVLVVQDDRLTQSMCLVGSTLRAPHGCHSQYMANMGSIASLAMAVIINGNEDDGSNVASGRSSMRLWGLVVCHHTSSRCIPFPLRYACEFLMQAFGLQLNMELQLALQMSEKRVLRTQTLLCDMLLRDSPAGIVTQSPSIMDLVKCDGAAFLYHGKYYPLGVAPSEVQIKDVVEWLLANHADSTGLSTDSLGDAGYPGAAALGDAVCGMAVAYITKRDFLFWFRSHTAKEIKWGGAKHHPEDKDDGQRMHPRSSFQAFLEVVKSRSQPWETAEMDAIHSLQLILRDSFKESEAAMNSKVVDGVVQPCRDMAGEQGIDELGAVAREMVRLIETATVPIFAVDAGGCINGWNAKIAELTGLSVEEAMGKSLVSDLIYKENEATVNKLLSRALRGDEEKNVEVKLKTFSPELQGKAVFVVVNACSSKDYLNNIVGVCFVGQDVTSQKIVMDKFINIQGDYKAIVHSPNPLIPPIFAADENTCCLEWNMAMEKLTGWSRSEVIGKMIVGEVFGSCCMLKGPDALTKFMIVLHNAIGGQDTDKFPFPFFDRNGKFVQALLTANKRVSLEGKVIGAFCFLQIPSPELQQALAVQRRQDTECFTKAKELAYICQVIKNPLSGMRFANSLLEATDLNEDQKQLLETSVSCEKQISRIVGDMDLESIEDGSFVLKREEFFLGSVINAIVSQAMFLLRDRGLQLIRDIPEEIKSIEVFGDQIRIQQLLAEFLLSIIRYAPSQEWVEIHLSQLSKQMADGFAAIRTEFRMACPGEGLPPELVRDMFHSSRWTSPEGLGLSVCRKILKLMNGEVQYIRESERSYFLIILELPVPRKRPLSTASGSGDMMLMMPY
Assay: pull-down; GST fusions incubated with SBP-phyB in the Pfr form (red light pulse 25 μmol/m2/s, 10 min, before the incubation), glutathione resin; 25 mM HEPES, 150 mM KCl, 1 mM DTT, pH 7.40; green safety light
Conditions: both partners purified

B1: GST-fused PIF4 (GST-PIF4) (natural protein, Arabidopsis thaliana, UniProt Q8W2F3 1-430, looked up)
chain: MEHQGWSFEENYSLSTNRRSIRPQDELVELLWRDGQVVLQSQTHREQTQTQKQDHHEEALRSSTFLEDQETVSWIQYPPDEDPFEPDDFSSHFFSTMDPLQRPTSETVKPKSSPEPPQVMVKPKACPDPPPQVMPPPKFRLTNSSSGIRETEMEQYSVTTVGPSHCGSNPSQNDLDVSMSHDRSKNIEEKLNPNASSSSGGSSGCSFGKDIKEMASGRCITTDRKRKRINHTDESVSLSDAIGNKSNQRSGSNRRSRAAEVHNLSERRRRDRINERMKALQELIPHCSKTDKASILDEAIDYLKSLQLQLQVMWMGSGMAAAAASAPMMFPGVQPQQFIRQIQSPVQLPRFPVMDQSAIQNNPGLVCQNPVQNQIISDRFARYIGGFPHMQAATQMQPMEMLRFSSPAGQQSQQPSSVPTKTTDGSRLDH
notes: source: E. coli BL21(DE3)-CodonPlus-RIL, purified (Ni-NTA, glutathione agarose); not shown: GST, N-terminal, kept
B1: binds.
